Reference: patent US20190064177A1, “INCORPORATING COMPETITIVE BINDING INFORMATION INTO MOLECULAR ARRAY ANALYSIS TO GENERATE FUNCTION NETWORKS OF INTERACTIONS” (ARIZONA BOARD OF REGENTS ON BEHALF OF ARIZONA STATE …, priority 2017, published 2019)

target: Diaphorase; experiment: peptide array, 1 uM diaphorase, measured binding without FAD / with FAD

Row | Binder | Meas. ratio (noFAD/FAD)
1 | KEDKVFGFRFDGS | 0.7
2 | WRSVYVPNGGSG | 2.35
3 | VLAYKLQVDGSG | 0.68
4 | YRRPWKFRDGSG | 1.74
5 | WHLLGWVGYGGSG | 0.7
6 | WRVQAWRPNKVEG | 2.43
7 | YRWGAKHYGGSG | 2.06
8 | FNKVLEYKWLFEG | 0.73
9 | EGFGYLFAHVGGS | 0.78
10 | AFNVWQYFEGGSG | 0.73
11 | DANLFGYFKDGGS | 0.7
12 | NHLLEGAFVSEGS | 0.77
13 | VSWVFGLGHEGGS | 0.71
14 | PQKSNHFHEAQKR | 2.41
15 | FLQFLGGSG | 0.87
16 | PVDFGYQLKVSGS | 0.66
17 | HVYGLNLFDGSG | 0.72
18 | PVPWRHVNYAHSG | 0.69
19 | SGVLQFFGGSG | 0.7
20 | YRRFPYFPGGSG | 1.6
21 | GYHLFEKLYFDGS | 0.7
22 | FYNFGYQDLEDGS | 0.75
23 | NRKFYWNAGGSG | 2.1
24 | ALDKLSGLWKHVG | 0.69
25 | DYFEGQLNHLGGS | 0.75
26 | LFDNVLEFVEDGS | 0.69
27 | AWVELEYQYVFEG | 0.74

target: Diaphorase; experiment: peptide array, 10 uM labeled diaphorase, with FAD

Row | Binder | fluorescence
28 | RYPWNKLYKFDGSG | 53000
29 | PRYQNFGGGSG | 36700
30 | YRFPNAQSPGGSG | 37700
31 | RWRYYWKSEGSG | 51400
32 | RNWYGGS [RNWYGGSG] | 48600
33 | RQAYLFGGSG | 64000
34 | PRYSGQYGGSG | 45200
35 | YRNAAWFSGGSG | 43300
36 | RAQYAQYLFGGSG | 55400
37 | PRSFGYNNVGGSG | 40500
38 | RLYPQGYGGSG | 61700
39 | YRLNLKHPVGGSG | 56700
40 | RYAYFQHLGGSG | 64100

target: Diaphorase; experiment: peptide array, 1 uM diaphorase, binding without FAD / with FAD

Row | Binder | noFAD/FAD
41 | RYPWNKLYKFDGSG | 2.8
42 | PRYQNFGGGSG | 2.81
43 | YRFPNAQSPGGSG | 2.63
44 | RWRYYWKSEGSG | 2.7
45 | RNWYGGS [RNWYGGSG] | 2.66
46 | RQAYLFGGSG | 3.23
47 | PRYSGQYGGSG | 2.61
48 | YRNAAWFSGGSG | 2.86
49 | RAQYAQYLFGGSG | 2.76
50 | PRSFGYNNVGGSG | 2.71
51 | RLYPQGYGGSG | 2.62
52 | YRLNLKHPVGGSG | 3.05
53 | RYAYFQHLGGSG | 2.73

target: Diaphorase; experiment: peptide array, 1 uM labeled diaphorase, with FAD

Row | Binder | fluorescence
54 | RYPWNKLYKFDGSG | 3480
55 | PRYQNFGGGSG | 2460
56 | YRFPNAQSPGGSG | 2370
57 | RWRYYWKSEGSG | 4090
58 | RNWYGGS [RNWYGGSG] | 2940
59 | RQAYLFGGSG | 4480
60 | PRYSGQYGGSG | 3230
61 | YRNAAWFSGGSG | 2930
62 | RAQYAQYLFGGSG | 3160
63 | PRSFGYNNVGGSG | 2530
64 | RLYPQGYGGSG | 4540
65 | YRLNLKHPVGGSG | 4150
66 | RYAYFQHLGGSG | 4970

target: Diaphorase; experiment: peptide array, 1 uM labeled diaphorase, no FAD

Row | Binder | fluorescence
67 | RYPWNKLYKFDGSG | 9740
68 | PRYQNFGGGSG | 6910
69 | YRFPNAQSPGGSG | 6240
70 | RWRYYWKSEGSG | 11000
71 | RNWYGGS [RNWYGGSG] | 7830
72 | RQAYLFGGSG | 14500
73 | PRYSGQYGGSG | 8430
74 | YRNAAWFSGGSG | 8370
75 | RAQYAQYLFGGSG | 8720
76 | PRSFGYNNVGGSG | 6840
77 | RLYPQGYGGSG | 11900
78 | YRLNLKHPVGGSG | 12700
79 | RYAYFQHLGGSG | 13600

target: Diaphorase; experiment: peptide array, 10 uM diaphorase, binding without FAD / with FAD

Row | Binder | noFAD/FAD
80 | RYPWNKLYKFDGSG | 1.24
81 | PRYQNFGGGSG | 1.79
82 | YRFPNAQSPGGSG | 1.74
83 | RWRYYWKSEGSG | 1.27
84 | RNWYGGS [RNWYGGSG] | 1.35
85 | RQAYLFGGSG | 1.02
86 | PRYSGQYGGSG | 1.45
87 | YRNAAWFSGGSG | 1.51
88 | RAQYAQYLFGGSG | 1.18
89 | PRSFGYNNVGGSG | 1.62
90 | RLYPQGYGGSG | 1.06
91 | YRLNLKHPVGGSG | 1.16
92 | RYAYFQHLGGSG | 1.02

target: Diaphorase; experiment: peptide array, 10 uM labeled diaphorase, no FAD; detector saturation

Row | Binder | fluorescence
93 | RYPWNKLYKFDGSG | > 65500
94 | PRYQNFGGGSG | > 65500
95 | YRFPNAQSPGGSG | > 65500
96 | RWRYYWKSEGSG | > 65500
97 | RNWYGGS [RNWYGGSG] | > 65500
98 | RQAYLFGGSG | > 65500
99 | PRYSGQYGGSG | > 65500
100 | YRNAAWFSGGSG | > 65500
101 | RAQYAQYLFGGSG | > 65500
102 | PRSFGYNNVGGSG | > 65500
103 | RLYPQGYGGSG | > 65500
104 | YRLNLKHPVGGSG | > 65500
105 | RYAYFQHLGGSG | > 65500
